# Results as given in the supplement of paper PMC12042874.
# ± gives the uncertainty stated by the source.
# Assay: amyloid nucleation score (Sup35N fusion, yeast selection) (log enrichment); library NNK3; higher = more nucleation; inactive = no reads after selection
# Method in brief: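 Peptides of 20 random codons, each fused to Sup35N, were expressed in psi-negative yeast. Cells were induced with 100 μM copper sulfate for 24 hours and grown 7 days at 30°C on medium lacking adenine and uracil, and plasmid inserts before and after selection were Illumina-sequenced. Nucleation scores are DiMSum log enrichments of output over input reads, centred on the mode score of non-aggregating sequences, and sequences under 100 input reads were excluded.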
row,Substance,amyloid nucleation score
1,WSGHIGVLRTTSSQQWRVRR,inactive
2,WSMCKLKDFFTGRGVYRFIS,inactive
3,WSSWSRS,inactive
4,WSTLFVIILPTKTLGYYCFW,inactive
5,WSTMMNNWCLLWGCKLKPKL,inactive
6,WSWRDLEGQNSGKEAVILEL,inactive
7,WTESWYKYMNKDVSSHCKQS,inactive
8,WVDWFESSQTFFCALYE,inactive
9,WVHSVKENVSCGSRF,inactive
10,WVQHISLWSTMWNGPREAPM,inactive
11,WVSSDRHSSLVNWKHGLSQE,inactive
12,WVVRKVHSLSHCLGCHPESW,0.231 ± 0.57
13,WVWMTETVLWFRYKQVACGW,inactive
14,WVYNGIIYGRLFMDLLWTGL,inactive
15,WYGCVAWYVVKSMFYS,inactive
16,WYMGFSAVLVCFRLSRPVT,inactive
17,WYNNYFRQVPSCVKDGRSHP,inactive
18,WYPLGRPRVLINYETPTSVM,inactive
19,WYSRTDCNKTAENSCSTKFI,0.611 ± 0.17
20,WYVFMCNGSWFLRNCRNLSY,0.144 ± 0.78
21,YAALWITYCLSSTTSRDDLD,inactive
22,YAEPYRRDVPGSCEYLTMM,inactive
23,YASVRVQFCCIFKSADRASP,1.9 ± 0.088

row,Substance,amyloid nucleation score
1,YAVSLMIFGFWGSSMFSHPS,0.779 ± 0.11
2,YCALLRNAITVV,inactive
3,YCCSGMWVMRSVHSHEIGYL,0.966 ± 0.18
4,YCDNYYSLMSTTEEFPRVCV,inactive
5,YCFDI,inactive
6,YCKFDS,0.705 ± 0.12
7,YCTRGNSTNLEYELECLVIF,inactive
8,YCVFGRNCDNKAVVLIGGNP,inactive
9,YCVQCR,inactive
10,YDLRIYSKRVDPF,inactive
11,YDLVSNG,inactive
12,YDMFMVSWLKEIDWMQDDPR,inactive
13,YDWMFLYPTSIS,0.319 ± 0.18
14,YEWKTRGW,inactive
15,YFATRDFAWVFENGSIEGAT,inactive
16,YFENLVEVRQIATFKTV,inactive
17,YFGDPSSRMKCFYPYVSVCR,inactive
18,YFILIYWSQCSMWYYVFKYG,inactive
19,YFINMRKYCTCPDMCEVLRI,0.574 ± 0.18
20,YFKYTN,1.32 ± 0.15
21,YFLSDLQRKGSGLETVRVCR,inactive
22,YFMVRWYCAGLDILCGLQEK,inactive
23,YFNYSLFISVCS,inactive

row,Substance,amyloid nucleation score
1,YFTNDQNKQGFHWMGYMSHI,inactive
2,YFVCVEEVRKYMEPSELGVR,inactive
3,YFVTTVKVEALFQ,-0.23 ± 0.55
4,YFYFVTHRDELGMSGPVTWA,inactive
5,YGFAVRLCCPSLNVFLTELL,0.612 ± 0.15
6,YGHFPQCVPLIFCYRRSMVT,inactive
7,YGIAMTQTIVSCSEIESKLR,inactive
8,YGLHTGKSKALQQRIVW,inactive
9,YGLSGDKFRWM,inactive
10,YGLVGQFSTVGTKQALLLGT,inactive
11,YGMYC,inactive
12,YGYALVFTFYVGLNSVNRLR,0.801 ± 0.3
13,YGYVIPSSQLPSWTLQRY,inactive
14,YHCNGPGSLWSTNLACRSME,inactive
15,YIASNAWETWRRDRSYRKRL,inactive
16,YIEAIYRDVPPECGTLLRTL,inactive
17,YIFVT,inactive
18,YIGRRNMPNFSSMWMWSQGK,inactive
19,YIIFLTMAHF,0.656 ± 0.29
20,YIKLGYQYLYVGE,inactive
21,YILIL,inactive
22,YIMSNLFGGNNLFGG,inactive
23,YISFVFDRYNKSYGTARICK,-0.506 ± 0.82

row,Substance,amyloid nucleation score
1,YIYSVEEYSRTSLIDDSVGW,inactive
2,YKFEHVIFWNSFLNIKVEFS,1.56 ± 0.068
3,YKFFGDLKVAYFGKVKIE,inactive
4,YKNEMGTIPCRRVTSNCLSY,inactive
5,YKQCN,inactive
6,YKRFMIPIKYCGGQRNTDVR,inactive
7,YKRRKTVNWHQDCTAIFGGN,inactive
8,YKVGRSHCGKKSEDLP,inactive
9,YKVILTCSKC,inactive
10,YKYDRFWKVFHQGRTLVAGG,inactive
11,YLCYMEYVH,inactive
12,YLDLFLWIREMLYYTGSLRV,inactive
13,YLFWLYERRKGDYISPHVLR,inactive
14,YLGEHRVVVRNSMSPQPWLS,inactive
15,YLGGVRSII,-0.402 ± 1.9
16,YLIYDRLSIQPDSSHHLVV,-0.124 ± 0.62
17,YLLLDEVRSKYCWGISCTGY,inactive
18,YLMYSVESVRWTLIE,inactive
19,YLNPAFELFKRMSNRFFVLA,-1.02 ± 1.9
20,YLRVWPMRVYNMP,inactive
21,YLTMYDSNDIFTIVATVMST,inactive
22,YLTVWFTKKLCVLFLFNIWK,inactive
23,YLVSYFNRGQSAFRFWDKFA,inactive

row,Substance,amyloid nucleation score
1,YLVYRNVTMVCPDRQH,0.375 ± 0.27
2,YLYCRAWIWLDNSMLSWS,inactive
3,YLYVRYTFRYWVVNYRYNNG,inactive
4,YMDPWYVIDHCLWRQMFLSE,-0.557 ± 1
5,YMEAC,inactive
6,YMKDALNLRPLRSSTALFLS,inactive
7,YMLWDDMVEKYHCLSQRLGR,inactive
8,YMNSTFQMFD,0.829 ± 0.19
9,YMVWMLNQDRSACGINIMSI,1.33 ± 0.12
10,YNDFCN,0.194 ± 0.27
11,YNDGVCIILFNLPFVCRRST,2.85 ± 0.05
12,YNERLALLGLMVSLNVSSHS,inactive
13,YNFECLIFWSVKYLVCQHIT,inactive
14,YNGGIRVTLT,inactive
15,YNHSMGWVCSAFDAKVRILR,inactive
16,YNLAGVFVIGHGNACATAFR,0.831 ± 0.3
17,YNMFNTLVDRVQLRGLCYGV,inactive
18,YNPIGFRRLFTPTCLFITKL,inactive
19,YNRADSIRFQ,inactive
20,YNSSTTVIDFTF,inactive
21,YNVRSFLTKVEWTYYFS,0.391 ± 0.16
22,YPCERYHRPHDQQNVDLTNL,inactive
23,YPCEVLGCDAN,inactive

row,Substance,amyloid nucleation score
1,YPKACVI,inactive
2,YPLYASTS,1.07 ± 0.16
3,YPNDLTRVFDRDNNLLGTHG,0.551 ± 0.32
4,YPWVYLAGYFHFFDELVGIF,inactive
5,YPYSSVTRNILCVENRCTGW,inactive
6,YQCFVKELYKECISHWARRK,inactive
7,YQRVHTSCHHELSIHGSSCT,inactive
8,YQSTVFGCYTYSRLKCLRSA,inactive
9,YRDRYLDPLWAD,inactive
10,YRHPTIECWSKMRCALVVCT,inactive
11,YRILRRYSDPAHEDIKRCTL,inactive
12,YRILYGWSFMIRLILDVQRE,inactive
13,YRLSLRH,inactive
14,YRRLCGDCGFGTLRLDLLFV,inactive
15,YRSEGSWHDDSQSKKWWSGV,inactive
16,YRTIVVLSNFFNILSFSKNQ,0.718 ± 0.15
17,YRYFGTAAMKRICHRNSIVS,inactive
18,YSACSSGVPRCLDMSRATVE,-0.055 ± 1.1
19,YSCLRLYATNHVTLWICELK,inactive
20,YSDIVFILDLGYCAF,1.3 ± 0.091
21,YSDTFADNYLNCMHQVKCVN,inactive
22,YSFSRY,inactive
23,YSGGCGWIMSRNSVRYSCIC,inactive

row,Substance,amyloid nucleation score
1,YSGGLWWYWPSECNNAKYVL,inactive
2,YSIIVVL,1.39 ± 0.087
3,YSIMFRVLVGT,inactive
4,YSKCNRIFFTEDLF,-0.295 ± 0.8
5,YSKRSLDYI,inactive
6,YSLSINCMFRYRSFSDFIDN,0.992 ± 0.2
7,YSMFN,inactive
8,YSNSELSGECRLLHKITSD,inactive
9,YSNWKLRRRCYLRDNIFWVI,inactive
10,YSPAK,inactive
11,YSRPMVTL,inactive
12,YSRSQTMSTACNVVYVFSGQ,inactive
13,YSSECALWNCRACVLYIHYR,1.27 ± 0.16
14,YSSHVPSLHQLDQVSRRVQG,inactive
15,YSSVILVY,0.156 ± 0.48
16,YSTPTDMLDLQFDKSASRGV,inactive
17,YSVIMPCSNLNWVDMNLTEY,-0.169 ± 0.29
18,YSWYEDPWWGERFWP,inactive
19,YSYTILHNFNKCSVKTLIFF,2.38 ± 0.058
20,YTAKYGGFISLYR,0.691 ± 0.15
21,YTCNST,inactive
22,YTFIIGIKHSTSSFNMSFSM,0.613 ± 0.25
